T1: rHuman Erythropoietin R/Fc Chimera, CF (R&D Systems Cat#963-ER) (human, UniProt P19235 25-250)
T1 construct: Bought recombinant protein; also called EPO R; EPO R/Fc
T1 sequence (looked up): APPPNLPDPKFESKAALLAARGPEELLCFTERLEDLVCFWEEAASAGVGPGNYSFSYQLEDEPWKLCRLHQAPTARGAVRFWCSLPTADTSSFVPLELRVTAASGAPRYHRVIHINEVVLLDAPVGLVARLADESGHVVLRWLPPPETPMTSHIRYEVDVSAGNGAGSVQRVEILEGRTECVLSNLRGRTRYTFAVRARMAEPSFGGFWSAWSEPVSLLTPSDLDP

T2: rHuman Erythropoietin R/Fc Chimera, CF (R&D Systems Cat#963-ER) (human, UniProt P19235 25-250)
T2 construct: Bought protein; also called EPO R; EPO R/Fc; Fc part of the bought chimera not given
T2 sequence (looked up): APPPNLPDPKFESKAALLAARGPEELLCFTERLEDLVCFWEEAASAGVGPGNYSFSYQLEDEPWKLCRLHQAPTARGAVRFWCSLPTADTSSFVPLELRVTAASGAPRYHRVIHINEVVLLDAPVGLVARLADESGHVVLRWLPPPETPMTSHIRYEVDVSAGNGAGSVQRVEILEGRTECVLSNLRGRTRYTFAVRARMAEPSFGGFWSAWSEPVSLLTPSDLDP


Legend:
[1] = molecular target: T3, rHuman CD44/Fc Chimera, CF (R&D Systems Cat#3660-CD) (human, UniProt P16070 21-220); assay: ECL Multispot (MSD) assay, antigen spotted on plate, 10 nM Fab;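 note: purified Fab bound to antigen spots for 1 h at 20 °C, then TAG detection antibody, electrochemiluminescence compared with each well's blank, ratio of 4 or more marks a hit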
T3 construct: Bought recombinant protein

[2] = molecular target: T4, rHuman HGF R/c-MET/Fc Chimera, CF (R&D Systems Cat#358-MT/CF) (human, UniProt P08581 25-932); assay: as above
T4 construct: Bought recombinant protein; also called HGF R/Fc

[3] = molecular target: T5, rHuman IGF-1 sR (insulin-like growth factor-1 soluble receptor), CF (R&D Systems Cat#391-GR) (human, UniProt P08069 31-932); assay: as above
T5 construct: Bought recombinant soluble receptor

[4] = molecular target: T6, Recombinant Human DLL4 (R&D Systems Cat#1506-D4/CF) (human, UniProt Q9NR61 27-524); assay: as above
T6 construct: Bought recombinant protein; also called delta-like protein 4; rHuman DLL4

[5] = molecular target: T1, rHuman Erythropoietin R/Fc Chimera, CF …; assay: as above
[6] = molecular target: T7, rHuman P-Cadherin/Fc Chimera, CF (R&D Systems Cat#861-PC) (human, UniProt P22223 108-654); assay: as above
T7 construct: Bought recombinant protein

[7] = molecular target: T8, rHuman EGF R/Fc Chimera, CF (R&D Systems Cat#344-ER) (human, UniProt P00533 25-645); assay: as above
T8 construct: Bought recombinant protein

[8] = molecular target: T9, rHuman ErbB2/Fc Chimera, CF (R&D Systems Cat#1129-ER) (human, UniProt P04626 23-652); assay: as above
T9 construct: Bought recombinant protein

[9] = molecular target: T6, Recombinant Human DLL4 (R&D Systems …); assay: ECL (MSD) binding assay, immobilised DLL4, repeat experiment
[10] = molecular target: T6, Recombinant Human DLL4 (R&D Systems …); assay: ECL (MSD) binding assay, DLL4 signal divided by blank, repeat experiment
[11] = molecular target: T10, rHuman IGF-1 sR, CF (R&D Systems Cat#391-GR) (human, UniProt P08069 31-932); assay: ECL multispot (MSD) binding assay; antigen spotted on plate, Fab in solution, Ru-labelled anti-kappa detection;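 note: purified Fab in 1% BSA TBST incubated 1 h at 20 °C with shaking, signal compared with each well's blank, signal/blank ratio of 4 or above counted as binder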
T10 construct: Bought from R&D Systems as a soluble receptor; also called insulin-like growth factor-1 soluble receptor

[12] = molecular target: T11, rHuman P-Cadherin/Fc Chimera, CF (R&D Systems Cat#861-PC) (human, UniProt P22223 108-654); assay: as above
T11 construct: Bought from R&D Systems; Fc part of the bought chimera not given

[13] = molecular target: T12, Recombinant Human DLL4 (R&D Systems Cat#1506-D4/CF) (human, UniProt Q9NR61 27-524); assay: as above
T12 construct: Bought from R&D Systems; also called delta-like protein 4; rHuman DLL4

[14] = molecular target: T13, rHuman HGF R/c-MET/Fc Chimera, CF (R&D Systems Cat#358-MT/CF) (human, UniProt P08581 25-932); assay: as above
T13 construct: Bought from R&D Systems; also called HGF R/Fc; hepatocyte growth factor receptor; Fc part of the bought chimera not given

[15] = molecular target: T14, rHuman EGF R/Fc Chimera, CF (R&D Systems Cat#344-ER) (human, UniProt P00533 25-645); assay: as above
T14 construct: Bought from R&D Systems; also called epidermal growth factor receptor; Fc part of the bought chimera not given

[16] = molecular target: T15, rHuman ErbB2/Fc Chimera, CF (R&D Systems Cat#1129-ER) (human, UniProt P04626 23-652); assay: as above
T15 construct: Bought from R&D Systems; also called human epidermal growth factor 2 receptor; Fc part of the bought chimera not given

[17] = molecular target: T16, Recombinant Human DLL4 (R&D Systems Cat#1506-D4/CF) (human, UniProt Q9NR61 27-524); assay: ECL multispot (MSD) assay; antigen spotted on plate, Fab in solution;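 note: purified Fab incubated 1 hour at 20 °C in 1% BSA TBST on antigen-coated wells, detected with TAG antibody, ECL read on Sector Imager 2400, compared to each well's blank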
T16 construct: Bought recombinant protein; also called delta-like protein 4; rHuman DLL4

[18] = molecular target: T17, rHuman ErbB2/Fc Chimera, CF (R&D Systems Cat#1129-ER) (human, UniProt P04626 23-652); assay: as above
T17 construct: Bought protein; also called human epidermal growth factor 2 receptor; Fc part of the bought chimera not given

[19] = molecular target: T18, rHuman CD44/Fc Chimera, CF (R&D Systems Cat#3660-CD) (human, UniProt P16070 21-220); assay: as above
T18 construct: Bought protein; Fc part of the bought chimera not given

[20] = molecular target: T19, rHuman HGF R/c-MET/Fc Chimera, CF (R&D Systems Cat#358-MT/CF) (human, UniProt P08581 25-932); assay: as above
T19 construct: Bought protein; also called HGF R/Fc; hepatocyte growth factor receptor; Fc part of the bought chimera not given

[21] = molecular target: T20, rHuman P-Cadherin/Fc Chimera, CF (R&D Systems Cat#861-PC) (human, UniProt P22223 108-654); assay: as above
T20 construct: Bought protein; Fc part of the bought chimera not given

[22] = molecular target: T2, rHuman Erythropoietin R/Fc Chimera, CF …; assay: as above
[23] = molecular target: T21, rHuman EGF R/Fc Chimera, CF (R&D Systems Cat#344-ER) (human, UniProt P00533 25-645); assay: as above
T21 construct: Bought protein; also called epidermal growth factor receptor; Fc part of the bought chimera not given

[24] = molecular target: T22, rHuman Notch-1/Fc Chimera, CF (R&D Systems Cat#3647-TK) (human, UniProt P46531 19-526); assay: as above
T22 construct: Bought protein; Fc part of the bought chimera not given

[25] = molecular target: T23, rHuman IGF-1 sR, (IGF-1 sR), CF (R&D Systems Cat#391-GR) (human, UniProt P08069 31-932); assay: as above
T23 construct: Bought soluble receptor; also called insulin-like growth factor-1 soluble receptor

ECL signal [17] [ECL signal]	ECL signal [18] [ECL signal]	ECL signal [19] [ECL signal]	ECL signal [20] [ECL signal]	ECL signal [21] [ECL signal]	ECL signal [22] [ECL signal]	ECL signal [23] [ECL signal]	ECL signal [24] [ECL signal]	ECL signal [25] [ECL signal]	Binder	further results
–	–	–	–	–	–	–	–	–	Fab VH1-46_IGHD6-6*01_IGHJ1*01 S102A/S103P/S104F/H111F F29A & L6_IGKJ1*01 (Fab, V domains shown, Fab as for m1 (CH1 with His6/Flag tags, kappa CL); also called APFF F29A) VH: QVQLVQSGAEVKKPGASVKVSCKASGYTATSYYMHWVRQAPGQGLEWMGIINPSGGSTSYAQKFQGRVTMTRDTSTSTVYMELSSLRSEDTAVYYCAREEYAPFSAEYFQFWGQGTLVTVSS VL: not shown	ECL signal [1]: 414; ECL signal [2]: 404; ECL signal [3]: 315; ECL signal [4]: 80700; ECL signal [5]: 466; ECL signal [6]: 276; ECL signal [7]: 293; ECL signal [8]: 244; ECL signal [9]: 109000; Signal/Noise [10]: 238
–	–	–	–	–	–	–	–	–	Fab VH1-46_IGHD6-6*01_IGHJ1*01 S102A/S103P/S104F/H111F & L6_IGKJ1*01 (Fab, V domains shown, Tested as a Fab made in E. coli; The heavy chain vector (Plasmid A) adds CH1 with His6 and Flag tags; The light chain vector (Plasmid C) adds kappa CL; also called APFF; H:APFF & L:wt) VH: QVQLVQSGAEVKKPGASVKVSCKASGYTFTSYYMHWVRQAPGQGLEWMGIINPSGGSTSYAQKFQGRVTMTRDTSTSTVYMELSSLRSEDTAVYYCAREEYAPFSAEYFQFWGQGTLVTVSS VL: not shown	ECL signal [11]: 342; ECL signal [12]: 318; ECL signal [13]: 197000; ECL signal [14]: 252; ECL signal [15]: 279; ECL signal [16]: 263
791	73	186	62	39	30	132	105	157	Fab VH1-46_IGHD6-6*01_IGHJ1*01 S102A/S103P/S104F (APF) & L6_IGKJ1*01 S30W (Fab, V domains shown, Tested as Fab made in E. coli; The heavy chain vector (Plasmid A) adds CH1 with His and Flag tags, the kappa vector (Plasmid C) adds CL kappa; also called APF / S30W) VH: QVQLVQSGAEVKKPGASVKVSCKASGYTFTSYYMHWVRQAPGQGLEWMGIINPSGGSTSYAQKFQGRVTMTRDTSTSTVYMELSSLRSEDTAVYYCAREEYAPFSAEYFQHWGQGTLVTVSS VL: EIVLTQSPATLSLSPGERATLSCRASQSVWSYLAWYQQKPGQAPRLLIYDASNRATGIPARFSGSGSGTDFTLTISSLEPEDFAVYYCQQRSNWPPWTFGQGTKVEIKR	–
745	35	89	108	39	87	140	155	86	Fab VH1-46_IGHD6-6*01_IGHJ1*01 S102A/S103P/S104F (APF) & L6_IGKJ1*01 S30R (Fab, V domains shown, Tested as Fab made in E. coli; The heavy chain vector (Plasmid A) adds CH1 with His and Flag tags, the kappa vector (Plasmid C) adds CL kappa; also called APF / S30R) VH: QVQLVQSGAEVKKPGASVKVSCKASGYTFTSYYMHWVRQAPGQGLEWMGIINPSGGSTSYAQKFQGRVTMTRDTSTSTVYMELSSLRSEDTAVYYCAREEYAPFSAEYFQHWGQGTLVTVSS VL: EIVLTQSPATLSLSPGERATLSCRASQSVRSYLAWYQQKPGQAPRLLIYDASNRATGIPARFSGSGSGTDFTLTISSLEPEDFAVYYCQQRSNWPPWTFGQGTKVEIKR	–
1020	243	229	297	195	207	274	127	204	Fab VH1-46_IGHD6-6*01_IGHJ1*01 S102A/S103P/S104F (APF) & L6_IGKJ1*01 S30T (Fab, V domains shown, Tested as Fab made in E. coli; The heavy chain vector (Plasmid A) adds CH1 with His and Flag tags, the kappa vector (Plasmid C) adds CL kappa; also called APF / S30T) VH: QVQLVQSGAEVKKPGASVKVSCKASGYTFTSYYMHWVRQAPGQGLEWMGIINPSGGSTSYAQKFQGRVTMTRDTSTSTVYMELSSLRSEDTAVYYCAREEYAPFSAEYFQHWGQGTLVTVSS VL: EIVLTQSPATLSLSPGERATLSCRASQSVTSYLAWYQQKPGQAPRLLIYDASNRATGIPARFSGSGSGTDFTLTISSLEPEDFAVYYCQQRSNWPPWTFGQGTKVEIKR	–
803	61	66	86	117	105	161	135	217	Fab VH1-46_IGHD6-6*01_IGHJ1*01 S102A/S103P/S104F (APF) & L6_IGKJ1*01 (Fab, V domains shown, Tested as Fab made in E. coli; The heavy chain vector (Plasmid A) adds CH1 with His and Flag tags, the kappa vector (Plasmid C) adds CL kappa; also called APF / parent; H:APF & L:wt) VH: QVQLVQSGAEVKKPGASVKVSCKASGYTFTSYYMHWVRQAPGQGLEWMGIINPSGGSTSYAQKFQGRVTMTRDTSTSTVYMELSSLRSEDTAVYYCAREEYAPFSAEYFQHWGQGTLVTVSS VL: not shown	–
1630	244	240	250	260	259	288	296	193	Fab VH1-46_IGHD6-6*01_IGHJ1*01 S102A/S103P/S104F (APF) & L6_IGKJ1*01 S30L (Fab, V domains shown, Tested as Fab made in E. coli; The heavy chain vector (Plasmid A) adds CH1 with His and Flag tags, the kappa vector (Plasmid C) adds CL kappa; also called APF / S30L) VH: QVQLVQSGAEVKKPGASVKVSCKASGYTFTSYYMHWVRQAPGQGLEWMGIINPSGGSTSYAQKFQGRVTMTRDTSTSTVYMELSSLRSEDTAVYYCAREEYAPFSAEYFQHWGQGTLVTVSS VL: EIVLTQSPATLSLSPGERATLSCRASQSVLSYLAWYQQKPGQAPRLLIYDASNRATGIPARFSGSGSGTDFTLTISSLEPEDFAVYYCQQRSNWPPWTFGQGTKVEIKR	–
